The target of test [1] is T1, biotinylated Huntingtin peptide Happ(+) (RPQLPQPPPQAQPRGGGSK-biotin).
T1 construct: also called biotinylated PRP; poly-proline peptide
T1 peptide: RPQLPQPPPQAQPRGGGSK-biotin
The test is described as follows: ELISA, purified intrabody on poly-proline peptides (FIG. 1B). The protocol: (§1) ELISA was performed to determine the binding activity of isolated scFv clones against biotinylated Huntingtin peptide designated Happ(+) ([…]-biotin (SEQ ID NO: 26), and a second biotinylated Huntingtin peptide designated Happ(−) ([…]-biotin (SEQ ID NO: 28). All incubations except antigen coating were carried out at room temperature. Microtiter plates (Nuc) were coated with 100 μl of a biotinlyated Huntingtin peptide solution (2 μg/ml in 50 mM NaHCO3 buffer, pH 9.6) and incubated overnight at 4° C. The plates were washed 3 times with 200 μl of 1×TBS (50 mM Tris-Cl, 150 mM NaCl pH 8.0) and blocked with 100 μl of 2% milk in TBS for 2 hr. Plates were washed once with 200 μl of 1×TBS. In some experiments, preblocked Strepavidin coated plates (Pierce) were used to bind biotinylated peptide. Cell extracts (50 μl) or purified StrepII tagged Intrabodies were added to the antigen-coated blocked plates and incubated for 1.5 hr. Extracts of E. coli cultures from individual colonies selected by panning after overnight induction with IPTG were prepared by lysis in B-Per (Pierce) as described by the manufacturer and centrifuged at 10,000×g for 10 minutes to remove cell wall and debris. Supernatants from these extracts were used directly or diluted with TBS (1:2, 1:4) prior to use. […] The optical density (OD) was measured at 405 nm on a spectrophotometer and the level of scFv binding determined. […]

The target of test [2] is T2, biotinylated Huntingtin peptide Happ(-) (PGPAVAEEPLHRPG-biotin).
T2 construct: also called second biotinylated proline rich peptide; carboxy derived Huntington's peptide
T2 peptide: PGPAVAEEPLHRPG-biotin
The description is as above. Here is the method:
as §1

Test [3] addresses T2, biotinylated Huntingtin peptide Happ(-) …. The test can be described thus: ELISA, purified intrabody on poly-proline peptides (FIG. 1A). The protocol:
as §1

The target of test [4] is T1, biotinylated Huntingtin peptide Happ(+) …. The test is described as follows: ELISA, purified scFv on biotinylated peptide. The protocol: as §1
The target is the same in test [5]. The test can be described thus: ELISA, purified intrabody on poly-proline peptides (FIG. 1C). Here is the method: as §1
Test [6] has as its target T2, biotinylated Huntingtin peptide Happ(-) …. The description is as above. The protocol:
as §1

Test [7] deals with T1, biotinylated Huntingtin peptide Happ(+) …. The test can be described thus: ELISA, H8 in E. coli lysate against purified H8; peptide not given.
Test [8] has as its target T2, biotinylated Huntingtin peptide Happ(-) …. The description is as above.

No end group written: not given here. biotin = biotin label at C-terminus

Consider 4 molecules from patent publication US20170044241A1 (VYBION, published 2017).

B1: A2 (scFv)
scFv: MAEVQLVVSGGGLVKPGGSMILSCAASGFTFSNYSMNWVRQAPGKGLEWVSSISSSSEYIYYADFVKGRFTISRDNAKNSLYLQMDSLRAEDTAVYYCAHWPRLWRFPLWGRGTLVTVSSGGGGSGGGGSGGGGSQSVLTQPASVSGSPGQSITISCAGTSSDVGGYNYVSWYQQHPGKAPKLMIYEDSKRPSGVSNRFSGSKSGNTASLTISGLRAEDEADYYCVLNMHWANFGGGTKLAVLGAAAEQKLIS
notes: Single chain intrabody; purified with a carboxy terminal StrepII tag for the ELISA; not shown: carboxy terminal StrepII tag of the purified form (pET24)
For B1, the binding result in test [1] and in test [2] was “binds” throughout.

B2: INT41 (scFv)
scFv: MAEVQLVVSGGGLVKPGGSMILSCAASGFTFSNYSMNWVRQAPGKGLEWVSSISSSSEYIYYADFVKGRFTISRDNAKNSLYLQMDSLRAEDTAVYYCAWPGYRKAWGRGTLVTVSSGGGGSGGGGSGGGGSQSVLTQPASVSGSPGQSITISCAGTSSDVGGYNYVSWYQQHPGKAPKLMIYEDSKRPSGVSNRFSGSKSGNTASLTISGLRAEDEADYYCSYCASKGHWLFGGGTKLAVLGAAAEQKLIS
notes: Single chain intrabody (VH-linker-VL) from the T3 scFv library; Purified from E. coli with a carboxy terminal StrepII tag for the ELISA; also called INT41 intrabody; not shown: carboxy terminal StrepII tag of the purified form (pET24)
For the molecule B2, the binding result in test [3] and in test [4] was “binds” throughout.

B3: E10 (scFv)
scFv: MAEVQLVVSGGGLVKPGGSMILSCAASGFTFSNYSMNWVRQAPGKGLEWVSSISSSSEYIYYADFVKGRFTISRDNAKNSLYLQMDSLRAEDTAVYYCAITGCECTWGRGTLVTVSSGGGGSGGGGSGGGGSQSVLTQPASVSGSPGQSITISCAGTSSDVGGYNYVSWYQQHPGKAPKLMIYEDSKRPSGVSNRFSGSKSGNTASLTISGLRAEDEADYYCSCIRGLKAAYFGGGTKLAVLGAAAEQKLIS
notes: as for B1
For B3, the binding result in test [5] and in test [6] was “binds” throughout.

B4: H8 (scFv)
scFv: MAEVQLVVSGGGLVKPGGSMILSCAASGFTFSNYSMNWVRQAPGKGLEWVSSISSSSEYIYYADFVKGRFTISRDNAKNSLYLQMDSLRAEDTAVYYCAAAVCNGRPDTWGRGTLVTVSSGGGGSGGGGSGGGGSQSVLTQPASVSGSPGQSITISCAGTSSDVGGYNYVSWYQQHPGKAPKLMIYEDSKRPSGVSNRFSGSKSGNTASLTISGLRAEDEADYYCGYSLLPVLFGGGTKLAVLGAAAEQKLIS
notes: Single chain intrabody; tested purified (StrepII tag) and also in E. coli lysate form; not shown: carboxy terminal StrepII tag of the purified form (pET24)
As for B4, the “fold signal, lysate form against purified form” value in test [7] and in test [8] was 3 times each time.
